Paper PMC4448915 (Structure (London, England : 1993), 2015)
“And” between values parts separate entries of the source, which are not always exact repeats. Equal values may be shown once. Read-outs that look alike come from different tables or passages of the source.

Tests used:
[1] = target: T1, ubiquitin (Ub), monomeric, wild type (UniProt P0CG48 1-76); assay: NMR titration
[2] = target: T1, ubiquitin (Ub), monomeric, wild type; assay: NMR titration; remark: listed apart in the source

| Kd [1] | Kd [2] [µM] | stoichiometry N [1] | binding result [1] | Binder |
| --- | --- | --- | --- | --- |
| 237 ± 52 µM | – | – | – | Ufo1UIMs, Ufo1 fragment of residues 547-668 comprising three UIM motifs (domain or fragment, UniProt Q04511 547-668, looked up) DEDEQLRRALEESQLIYETQTNSSANHGNNTNDEIDEDDEEFLRAIRQSRVEDERRRHLRNHTTGRRNGPLSDDNFATYGAAESSERTSTENTIGSSVGVDASNNVDEDLQLAIALSLSEIN |
| – | – | – | binds | full-length (FL) Ddi1 protein from Saccharomyces cerevisiae (natural protein, S. cerevisiae, UniProt P40087 1-428, looked up) MDLTISNELTGEIYGPIEVSEDMALTDLIALLQADCGFDKTKHDLYYNMDILDSNRTQSLKELGLKTDDLLLIRGKISNSIQTDAATLSDEAFIEQFRQELLNNQMLRSQLILQIPGLNDLVNDPLLFRERLGPLILQRRYGGYNTAMNPFGIPQDEYTRLMANPDDPDNKKRIAELLDQQAIDEQLRNAIEYTPEMFTQVPMLYINIEINNYPVKAFVDTGAQTTIMSTRLAKKTGLSRMIDKRFIGEARGVGTGKIIGRIHQAQVKIETQYIPCSFTVLDTDIDVLIGLDMLKRHLACVDLKENVLRIAEVETSFLSEAEIPKSFQEGLPAPTSVTTSSDKPLTPTKTSSTLPPQPGAVPALAPRTGMGPTPTGRSTAGATTATGRTFPEQTIKQLMDLGFPRDAVVKALKQTNGNAEFAASLLFQ |

Second part, the binder before the results:

| Binder | Kd [1] | Kd [2] [µM] | stoichiometry N [1] | binding result [1] |
| --- | --- | --- | --- | --- |
| TFPEQTIKQLMDLGFPRDAVVKALKQTNGNAEFAASLLFQ (domain or fragment, S. cerevisiae, UniProt P40087 389-428, looked up) [Ddi1UBA, ubiquitin-associated (UBA) domain of Ddi1 from Saccharomyces cerevisiae, residues 389-428] | 150 ± 16 µM | 291 ± 13 | – | – |
| Ddi1UBL, ubiquitin-like (UBL) domain of DNA-damage-inducible 1 protein (Ddi1) from Saccharomyces cerevisiae, residues 2-80 (domain or fragment, S. cerevisiae, UniProt P40087 2-80, looked up) DLTISNELTGEIYGPIEVSEDMALTDLIALLQADCGFDKTKHDLYYNMDILDSNRTQSLKELGLKTDDLLLIRGKISNS | 45 µM and 71 µM | 175 ± 25 | 1 | – |
